From US20200385479A1 (LYVGEN BIOPHARMA, published 2020)
Where a chain is given by its changes, count along the chain named. Numbers in names are those of the source.

B1: LYV390 (30C11-IgG4) (antibody, V domains shown)
VH: QIQLVQSGPELKKPGESVKISCKASGYTFTDYAMHWVKQAPGKALKWMGLINTYTGKPTYVDDLKGRFVFSLEASASTAKLQISNLKNEDTAIYFCARYYHDGTYYGWFANWGQGTLVTVSS
VL: DTVLTQSPALAVSPGERVTVSCGATESVSTALNWYQQKPGQQPRLLIYGASNLESGVPARFSGSGSGTDFTLSIDPVEADDTATYFCQQTWNDPLTFGSGTKLEIKR
notes: Chimeric antibody, human IgG4 S228P / human kappa; also called 30C11 in hG4SP / human kappa
B2: LYV370 (20A12-IgG4) (antibody, V domains shown)
VH: QIQLVQSGPELKKPGETVKISCKASGYTFTTYGMSWVKQAPGKGLKWMGWINTYSGVPTYADDFKGRFAFSLETSASTAYLQINNLKNEDMAIYFCARGYGSPDYWGQGTTLTVSS
VL: QIVLTQSPAIMSASPGEKVTMTCSASSSVSYMNWYQQKSGTSPKRWIFDTSKLASGVPARFSGSGSGTSYSLTISSMEAEDAATYYCQQWSGNPPISTFGSGTKLEIKR
notes: Chimeric antibody: hybridoma variable domains on human IgG4 constant region with hinge S228P (EU numbering) and human kappa constant region; S228P is already in the full chain entry; also called 20A12 in human IgG4SP / human kappa
B3: LYV372 (23D2-IgG4) (antibody, V domains shown)
VH: QVQLQQSGAELVRPGSSVKISCKASGYAFSIYWMNWVKQRPGQGLEWIGQIYPGDGYTNYNGKFKGKATLTADKSSSTAYMQLSSLTSEDSAVYFCARGQLGLDGYWGQGTTLTVSS
VL: QIVLTQSPTIMSASPGEKVTMTCSASSSVSYIYWYQQKPGSSPRLLIYDTSNLASGVPVRFSGSGSGTSYSLTISRMEAEDAATYYCQQWNIYPYTFGGGTKLEIKR
notes: Chimeric antibody, human IgG4 S228P / human kappa; also called 23D2 in human IgG4S; 23D2b in human Kappa
B4: LYV375 (22F2-IgG4) (antibody, V domains shown)
VH: B3 VH with Q1E, Q3K, Q5V, Q6E, I31L
VL: B3 VL with T9A
notes: Chimeric antibody, human IgG4 S228P / human kappa; also called 22F2 in human IgG4SP / human Kappa
B5: LYV371 (11E10-IgG4) (antibody, V domains shown)
VH: QVQLQQSGAELVRPGASVTLSCKASGYTFAGFEMHWIKQTPVHGLGWIGAIDPKTGGTDYNQKFKDKALLTADKSSNTAYMELRSLTSEDSAVYYCTRDLGYFDVWGTGTTVTVSS
VL: DIQMTQTTSSLSASLGDRVTISCRASQDIRSNLNWYQQKPDGTVKLLIYYTSRLHSGVPSRFSGSGSGTDYSLTISNLEQEDIATYFCQQSEKLPRTFGGGTKLEIRR
notes: Chimeric antibody, human IgG4 S228P / human kappa; also called 11E10 in human IgG4SP / human Kappa
B6: LYV402 (26B3-IgG4) (antibody, V domains shown)
VH: EVKLLESGGGLVQPGGSLKLSCAASGFDFSRYWMSWVRQAPGKGLEWIGEINPDSNPINYTPSLKDKFIISRDNAKNTLYLQMSKVRSEDTALYYCARDGSSSRYFDVWGAGTTVTVSS
VL: DIVMTQSPATLSVTPGDRVSLSCRASQSISDYLHWYQQKSHESPRLLIKYVSQSISGIPSRFSGSGSGSDFTLSINSVEPEDVGVYYCQNGHSFPPTFGGGTKLEIKR
notes: Chimeric antibody, human IgG4 S228P / human kappa; also called 26B3b in hG4SP / human kappa

biological target: T1, CD137 antigen (Octet antigen binding assay) (UniProt Q07011 24-186, limits assumed); test: BLI, Octet Red 96, antibody on anti-human Fc (AHC) biosensors, 1:1 model
T1 construct: also called 4-1BB; TNFRSF9
Method: The chimeric antibodies were tested in an antigen binding assay on Octet Red 96 to estimate binding kinetics. Antibodies were loaded onto anti-human Fc (AHC) biosensors. Loaded sensors were dipped into a serial dilution of each […] (300 nM, 1:3 down, 7 points) in assay buffer (PBS with 0.1% BSA, 0.02% Tween-20 (pH 7.2)).

Binder	Kd [nM]	koff [s⁻¹]	kon [M⁻¹ s⁻¹]
B1	5.3	0.0014	260000
B2	5.7	0.001	180000
B3	5.8	0.0016	280000
B4	8.2	0.0023	280000
B5	3.8	0.0011	280000
B6	2.1	0.00034	160000

biological target: T2, human CD137-His tag protein; test: ELISA, plate coated with human CD137-His at 1 ug/ml, anti-human IgG-HRP, A450
T2 construct: It differs from the cell-surface CD137 and the Octet antigen; also called Sino Biological Inc. Cat #10377-H08H-100; not shown: C-terminal His tag of the vendor's product (Sino Biological Cat #10377-H08H-100)
Method: CD137 protein (human CD137-His tag protein (Sino Biological Inc. Cat #10377-H08H-100) or rhesus monkey CD137-His (Sino Biological Inc. Cat #90305-K08H-100)) was diluted in PBS to 1 ug/ml and used to coat an ELISA plate (Corning, Cat #9018, high binding) at a concentration of 50 ul/well. The plate was incubated overnight at 4° C. The plate was then decanted and washed with PBS-T, and 200 ul/well assay diluent (1×PBS/1% BSA/0.05% Tween-20/0.05% proclin 300) was added. After a 3 hour incubation at room temperature, the plate was washed with PBS-T three times. The testing antibodies were diluted in assay diluent to 0, 0.000003, 0.00003, 0.0003, 0.003, 0.03, and 0.3 ug/ml or approximately 0, 0.00002, 0.0002, 0.002, 0.02, 0.2 and 2 nM and then added to the plate (50 ul/well). The plate was incubated for one hour at 37° C. and then washed three times with PBS-T. Anti-human IgG-HRP conjugate (Bethyl Cat #A80-319P) at a 1:10,000 dilution was added to the plate (100 ul/well). The plate was incubated for 0.5 hour at 37° C., followed by washing with PBS-T three times. The TMB substrate solution was added (100 ul/well). The color was allowed to develop for 8 minutes before it was stopped with 100 ul/well 2N H₂SO₄. Absorbance at 450 nm was determined with an ELISA reader.

T2 sequence (chain, as listed by the source limits assumed): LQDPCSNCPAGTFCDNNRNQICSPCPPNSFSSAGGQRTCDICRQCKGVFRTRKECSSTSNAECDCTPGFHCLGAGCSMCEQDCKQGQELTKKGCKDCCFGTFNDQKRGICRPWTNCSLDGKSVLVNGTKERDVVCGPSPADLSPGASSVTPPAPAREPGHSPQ

Binder	EC50 (read off the curve) [nM]	binding result
B1	~0.04	–
B2	–	binds
B4	0.01 to 0.02	–
B6	~0.005	–
